Each block holds one substance with its values, some of them ahead of it.
Legend:
[1] = biological target: human c-Met ECD-Fc-Flis (human); assay: HGF-blocking ELISA: HGF signal on coated c-Met ECD-Fc-Flis; Ab 125000.00 ng/mL
[2] = biological target: human c-Met (human) (UniProt P08581); assay: cell-based or functional assay
[3] = biological target: human c-Met ECD-Fc-Flis (human); assay: HGF-blocking ELISA: HGF signal on coated c-Met ECD-Fc-Flis; Ab 7.63 ng/mL
[4] = biological target: human c-Met ECD-Fc-Flis (human); assay: HGF-blocking ELISA: HGF signal on coated c-Met ECD-Fc-Flis; Ab 1.91 ng/mL
[5] = biological target: human c-Met ECD-Fc-Flis (human); assay: HGF-blocking ELISA: HGF signal on coated c-Met ECD-Fc-Flis; Ab 30.52 ng/mL
[6] = biological target: human c-Met ECD-Fc-Flis (human); assay: HGF-blocking ELISA: HGF signal on coated c-Met ECD-Fc-Flis; Ab 7812.50 ng/mL
[7] = biological target: human c-Met ECD-Fc-Flis (human); assay: HGF-blocking ELISA: HGF signal on coated c-Met ECD-Fc-Flis; Ab 0.00 ng/mL (HGF only)
[8] = biological target: human c-Met ECD-Fc-Flis (human); assay: HGF-blocking ELISA: HGF signal on coated c-Met ECD-Fc-Flis; Ab 0.48 ng/mL
[9] = biological target: human c-Met ECD-Fc-Flis (human); assay: HGF-blocking ELISA: HGF signal on coated c-Met ECD-Fc-Flis; Ab 1953.13 ng/mL
[10] = biological target: human c-Met ECD-Fc-Flis (human); assay: HGF-blocking ELISA: HGF signal on coated c-Met ECD-Fc-Flis; Ab 122.07 ng/mL
[11] = biological target: human c-Met ECD-Fc-Flis (human); assay: HGF-blocking ELISA: HGF signal on coated c-Met ECD-Fc-Flis; Ab 31250.00 ng/mL
[12] = biological target: human c-Met ECD-Fc-Flis (human); assay: HGF-blocking ELISA: HGF signal on coated c-Met ECD-Fc-Flis; Ab 488.28 ng/mL

Sequence of human c-Met (human) (P08581 25-1390): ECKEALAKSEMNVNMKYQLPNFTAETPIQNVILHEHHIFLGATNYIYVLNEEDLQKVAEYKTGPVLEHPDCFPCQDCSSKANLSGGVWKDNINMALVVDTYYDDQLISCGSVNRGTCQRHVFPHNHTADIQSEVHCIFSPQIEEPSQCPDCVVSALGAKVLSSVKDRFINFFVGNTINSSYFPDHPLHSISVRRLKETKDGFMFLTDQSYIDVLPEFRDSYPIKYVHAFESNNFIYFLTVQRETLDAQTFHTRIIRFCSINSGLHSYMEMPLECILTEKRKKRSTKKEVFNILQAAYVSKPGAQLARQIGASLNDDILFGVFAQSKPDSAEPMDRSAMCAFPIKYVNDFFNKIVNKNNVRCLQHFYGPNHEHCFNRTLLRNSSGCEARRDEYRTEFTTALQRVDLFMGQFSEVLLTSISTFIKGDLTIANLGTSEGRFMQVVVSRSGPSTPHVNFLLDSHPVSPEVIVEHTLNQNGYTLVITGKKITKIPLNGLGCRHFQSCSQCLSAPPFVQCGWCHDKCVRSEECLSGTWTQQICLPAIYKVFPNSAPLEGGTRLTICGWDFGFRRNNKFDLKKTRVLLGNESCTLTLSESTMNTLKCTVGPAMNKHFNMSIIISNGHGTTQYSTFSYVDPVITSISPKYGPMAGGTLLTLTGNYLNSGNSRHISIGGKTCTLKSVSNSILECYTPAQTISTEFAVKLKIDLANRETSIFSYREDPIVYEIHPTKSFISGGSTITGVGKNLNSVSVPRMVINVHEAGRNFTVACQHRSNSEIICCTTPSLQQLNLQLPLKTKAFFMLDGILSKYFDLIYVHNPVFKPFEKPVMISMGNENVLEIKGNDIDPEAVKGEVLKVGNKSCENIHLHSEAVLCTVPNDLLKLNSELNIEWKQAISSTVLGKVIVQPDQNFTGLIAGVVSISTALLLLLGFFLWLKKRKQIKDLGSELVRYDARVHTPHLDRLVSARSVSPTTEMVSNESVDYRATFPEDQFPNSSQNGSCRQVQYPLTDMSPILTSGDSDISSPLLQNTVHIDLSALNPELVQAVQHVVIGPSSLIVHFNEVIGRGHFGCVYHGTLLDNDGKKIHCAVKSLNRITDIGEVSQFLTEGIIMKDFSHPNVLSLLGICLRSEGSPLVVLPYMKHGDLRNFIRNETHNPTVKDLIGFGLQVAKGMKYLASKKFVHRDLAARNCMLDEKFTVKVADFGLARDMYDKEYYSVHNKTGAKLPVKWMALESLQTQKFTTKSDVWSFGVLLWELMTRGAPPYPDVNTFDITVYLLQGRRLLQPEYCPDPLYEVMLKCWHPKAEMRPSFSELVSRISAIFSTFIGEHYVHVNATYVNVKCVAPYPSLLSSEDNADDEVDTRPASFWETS
Sequence of human c-Met ECD-Fc-Flis (human) (chain, as listed by the source): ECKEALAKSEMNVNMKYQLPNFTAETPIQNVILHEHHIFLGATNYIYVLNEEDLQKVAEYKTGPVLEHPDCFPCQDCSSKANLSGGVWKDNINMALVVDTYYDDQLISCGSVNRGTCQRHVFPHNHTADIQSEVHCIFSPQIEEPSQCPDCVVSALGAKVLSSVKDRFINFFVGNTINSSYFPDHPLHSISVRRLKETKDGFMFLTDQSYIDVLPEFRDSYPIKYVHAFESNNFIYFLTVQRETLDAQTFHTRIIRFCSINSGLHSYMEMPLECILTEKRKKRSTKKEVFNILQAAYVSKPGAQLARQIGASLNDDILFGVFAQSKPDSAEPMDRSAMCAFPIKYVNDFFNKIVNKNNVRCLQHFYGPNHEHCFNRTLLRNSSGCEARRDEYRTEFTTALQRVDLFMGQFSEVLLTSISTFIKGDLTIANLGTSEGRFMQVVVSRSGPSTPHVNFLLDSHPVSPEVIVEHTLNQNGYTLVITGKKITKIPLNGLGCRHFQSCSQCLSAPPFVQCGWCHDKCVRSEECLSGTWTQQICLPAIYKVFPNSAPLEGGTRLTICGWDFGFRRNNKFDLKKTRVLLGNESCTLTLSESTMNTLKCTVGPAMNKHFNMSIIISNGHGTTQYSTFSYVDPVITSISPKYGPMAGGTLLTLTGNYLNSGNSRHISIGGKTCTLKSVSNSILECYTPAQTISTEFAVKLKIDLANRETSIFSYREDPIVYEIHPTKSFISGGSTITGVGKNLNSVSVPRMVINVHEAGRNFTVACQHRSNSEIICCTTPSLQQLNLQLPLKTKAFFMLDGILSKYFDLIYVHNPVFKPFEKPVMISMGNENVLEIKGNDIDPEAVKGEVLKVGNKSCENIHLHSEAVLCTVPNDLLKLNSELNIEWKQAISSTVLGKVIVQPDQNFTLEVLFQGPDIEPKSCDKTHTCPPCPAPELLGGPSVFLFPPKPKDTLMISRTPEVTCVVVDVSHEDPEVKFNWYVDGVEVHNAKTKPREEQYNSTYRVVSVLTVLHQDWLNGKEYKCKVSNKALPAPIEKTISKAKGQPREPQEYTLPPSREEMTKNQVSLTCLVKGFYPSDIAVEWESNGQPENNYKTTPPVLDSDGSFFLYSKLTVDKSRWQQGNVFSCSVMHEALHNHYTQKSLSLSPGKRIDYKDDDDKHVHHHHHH
Sequence of human hepatocyte growth factor (HGF) (P14210 32-728 limits assumed): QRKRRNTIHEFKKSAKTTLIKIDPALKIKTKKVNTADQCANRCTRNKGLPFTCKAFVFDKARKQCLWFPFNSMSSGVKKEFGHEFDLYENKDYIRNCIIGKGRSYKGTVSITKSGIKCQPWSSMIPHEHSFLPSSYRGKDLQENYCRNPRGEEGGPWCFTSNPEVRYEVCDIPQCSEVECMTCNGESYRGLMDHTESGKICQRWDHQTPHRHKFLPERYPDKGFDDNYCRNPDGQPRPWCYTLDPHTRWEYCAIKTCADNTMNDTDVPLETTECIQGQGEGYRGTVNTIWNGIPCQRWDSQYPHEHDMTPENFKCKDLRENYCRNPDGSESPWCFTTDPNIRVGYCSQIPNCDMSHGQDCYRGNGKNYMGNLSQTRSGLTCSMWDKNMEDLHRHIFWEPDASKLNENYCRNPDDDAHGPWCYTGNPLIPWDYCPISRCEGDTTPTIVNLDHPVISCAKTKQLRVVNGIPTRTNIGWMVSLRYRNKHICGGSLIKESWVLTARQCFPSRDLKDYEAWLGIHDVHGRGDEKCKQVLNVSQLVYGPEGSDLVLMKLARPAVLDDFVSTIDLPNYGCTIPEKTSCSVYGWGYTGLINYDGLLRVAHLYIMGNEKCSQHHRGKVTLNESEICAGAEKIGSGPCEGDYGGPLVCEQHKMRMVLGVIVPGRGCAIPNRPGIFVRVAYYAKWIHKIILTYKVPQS

- AVG A450 nm [1]: 2.43 A450 nm
- % inhibition of HGF stimulated phospho-Met (ELISA, HCT116 cells), Ab 0.0032 µg/mL [2]: -10.2%
- % inhibition of HGF stimulated phospho-Met (ELISA, HCT116 cells), Ab 0.016 µg/mL [2]: 9.49%
- % inhibition of HGF stimulated phospho-Met (ELISA, HCT116 cells), Ab 0.08 µg/mL [2]: -1.58%
- % inhibition of HGF stimulated phospho-Met (ELISA, HCT116 cells), Ab 0.4 µg/mL [2]: 9.31%
- % inhibition of HGF stimulated phospho-Met (ELISA, HCT116 cells), Ab 2 µg/mL [2]: 17.5%
- % inhibition of HGF stimulated phospho-Met (ELISA, HCT116 cells), Ab 10 µg/mL [2]: 6.24%
- AVG CPM, 3H-thymidine incorporation in MKN45 cells, Ab 0.0 ng/mL (no antibody) [2]: 50400 CPM
- AVG CPM, 3H-thymidine incorporation in MKN45 cells, Ab 0.1 ng/mL [2]: 44800 CPM
- AVG CPM, 3H-thymidine incorporation in MKN45 cells, Ab 0.4 ng/mL [2]: 46500 CPM
- AVG CPM, 3H-thymidine incorporation in MKN45 cells, Ab 2.6 ng/mL [2]: 48500 CPM
- AVG CPM, 3H-thymidine incorporation in MKN45 cells, Ab 15.4 ng/mL [2]: 50500 CPM
- AVG CPM, 3H-thymidine incorporation in MKN45 cells, Ab 92.6 ng/mL [2]: 47600 CPM
- AVG CPM, 3H-thymidine incorporation in MKN45 cells, Ab 555.6 ng/mL [2]: 51700 CPM
- AVG CPM, 3H-thymidine incorporation in MKN45 cells, Ab 3333.3 ng/mL [2]: 49400 CPM
- AVG CPM, 3H-thymidine incorporation in MKN45 cells, Ab 20000.0 ng/mL [2]: 45100 CPM
- Mean Fluorescence (c-Met left on the surface of MKN45 cells, FACS), Ab 5.00 ug/mL [2]: 130
- AVG A450 nm [3]: 2.7 A450 nm
- AVG A450 nm [4]: 2.87 A450 nm
- AVG A450 nm [5]: 2.41 A450 nm
- AVG A450 nm [6]: 2.5 A450 nm
- AVG A450 nm [7]: 2.43 A450 nm
- AVG A450 nm [8]: 2.46 A450 nm
- AVG A450 nm [9]: 2.43 A450 nm
- AVG A450 nm [10]: 2.52 A450 nm
- AVG A450 nm [11]: 2.5 A450 nm
- AVG A450 nm [12]: 2.53 A450 nm
Substance: humanized IgG2 isotype control antibody

- 3H-Thymidine Incorporation in Primary Human Hepatocytes (ave), HGF 200 ng/mL [2]: 6290
- H441 Scratch Assay, Avg. %, HGF 200 ng/mL [2]: 364%
- HepG2 Cell Invasiveness, Average Cell Number Per 2.5x Field, HGF 50 ng/mL (cells per 2.5x field) [2]: 510
- Percent of DU145 Cells in Colonies (scatter assay), HGF 20 ng/mL [2]: 8.15%
- Staurosporine-Induced Apoptosis in Caki-1 Cells, Average A450 nm, HGF 0.02 ng/mL [2]: 0.97 A450 nm
- Staurosporine-Induced Apoptosis in Caki-1 Cells, Average A450 nm, HGF 0.23 ng/mL [2]: 0.93 A450 nm
- Staurosporine-Induced Apoptosis in Caki-1 Cells, Average A450 nm, HGF 2.25 ng/mL [2]: 0.73 A450 nm
- Staurosporine-Induced Apoptosis in Caki-1 Cells, Average A450 nm, HGF 22.5 ng/mL [2]: 0.58 A450 nm
- Staurosporine-Induced Apoptosis in Caki-1 Cells, Average A450 nm, HGF 225 ng/mL [2]: 0.45 A450 nm
- Tube Formation in ECFC Cells, Total Tube Area (Avg.), HGF 100 ng/mL [2]: 212000
- Tubular Morphogenesis Agonist activity (fold stimulation) in HepG2 cells, HGF 50 ng/ml (fold stimulation) [2]: 5.4
Substance: human hepatocyte growth factor (HGF) (from UniProt P14210 32-728) (ligand)
